Measurements as given in PMC11162425.

What was measured:
[1] = biological target: Lcl-N GFP fusion (N-GFP) (Legionella pneumophila strain 130b); assay: SEC
[2] = biological target: Legionella collagen-like protein (Lcl) from L. pneumophila strain 130b, intact recombinant (residues 1-401) (Legionella pneumophila strain 130b); assay: SEC-MALS

| Substance | stoichiometry N [1] | stoichiometry N [2] |
| --- | --- | --- |
| Lcl-N GFP fusion (N-GFP) (domain or fragment) | 3 | – |
| Legionella collagen-like protein (Lcl) from L. pneumophila strain 130b, intact recombinant (residues 1-401) (natural protein) | – | 3 |
